Data from publication PMC10300128.

Biological target: human angiotensin-converting enzyme 2 (residues 19–615), mouse IgG2a Fc fusion (human) (UniProt Q9BYF1)
Experiment: BLI

UniProt Q9BYF1, sequence (Q9BYF1 19-615): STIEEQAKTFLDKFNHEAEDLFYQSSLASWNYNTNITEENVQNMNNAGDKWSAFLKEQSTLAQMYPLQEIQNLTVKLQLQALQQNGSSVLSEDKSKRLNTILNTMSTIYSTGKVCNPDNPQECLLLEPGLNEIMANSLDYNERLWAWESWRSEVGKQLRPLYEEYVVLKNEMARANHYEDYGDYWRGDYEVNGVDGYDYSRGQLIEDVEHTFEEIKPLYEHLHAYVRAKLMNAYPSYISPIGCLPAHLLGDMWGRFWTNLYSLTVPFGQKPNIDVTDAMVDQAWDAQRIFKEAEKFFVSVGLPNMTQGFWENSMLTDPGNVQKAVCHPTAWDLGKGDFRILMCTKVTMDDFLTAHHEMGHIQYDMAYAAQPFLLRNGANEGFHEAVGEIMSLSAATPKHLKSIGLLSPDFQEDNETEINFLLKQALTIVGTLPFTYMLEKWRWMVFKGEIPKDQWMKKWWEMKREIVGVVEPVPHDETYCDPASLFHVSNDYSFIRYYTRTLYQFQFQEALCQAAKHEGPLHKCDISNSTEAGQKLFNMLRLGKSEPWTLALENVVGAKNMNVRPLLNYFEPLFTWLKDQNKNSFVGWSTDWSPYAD

## RhGB07 spike trimer (natural protein)
  Kd: 253 nM
